Here are results for 1 substance from publication PMC8881592.

The data set in a line: time-resolved SAXS; rSslE 0.7 mg/ml in 20 mM citrate-phosphate buffer pH 4.4, 25 °C, stirred and circulated, data every 30 min over 11 h; COSMiCS decomposition into monomer and aggregate. To be noted: other: time-resolved SAXS.

In the case of “recombinant SslE from E. coli W (rSslE; residues 67 to 1497)”, the “molar fraction of the aggregated species after 30 min” value is “the aggregated species already represented 50% of the molar fraction”.
